In article PMC4549789:

Target: Escherichia coli β sliding clamp (Escherichia coli) (UniProt P0A988)
Sequence of UniProt P0A988 (P0A988 whole entry): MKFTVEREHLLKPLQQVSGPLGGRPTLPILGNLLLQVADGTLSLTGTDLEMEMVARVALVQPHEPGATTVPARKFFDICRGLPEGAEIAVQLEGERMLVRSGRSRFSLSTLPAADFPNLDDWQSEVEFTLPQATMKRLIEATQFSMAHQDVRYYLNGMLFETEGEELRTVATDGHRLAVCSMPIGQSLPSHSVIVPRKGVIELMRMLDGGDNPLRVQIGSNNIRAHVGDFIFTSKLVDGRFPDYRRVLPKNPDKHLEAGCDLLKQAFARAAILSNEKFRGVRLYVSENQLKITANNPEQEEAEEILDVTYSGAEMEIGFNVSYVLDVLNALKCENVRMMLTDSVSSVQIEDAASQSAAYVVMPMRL

papillae in the in vivo papillation assay of transposition in E. coli DH5α (quantification for 8 colonies): 3.15
Substance: Acidiphilium IS1634 transposase, wild type (enzyme)
